# Residue numbers refer to the chain shown, from its start.
# B1: ADI-14451 (antibody, V domains shown)
# VH: EVQLVESGAEVRKPGASVKVSCKASGYIFINYYIHWVRQAPGQGLEWMGWINPNSGASNHAQTFEGRITMTTDTSSNTAYMELSRLREDDTAVYYCARSQQLLVITDYSLDYWGLGTLVTVSS
# VL: SSELTQDPAVSVALGQTVRITCHGDTLRNYYPAWYQQKPGQAPVLVVSDRNTRPSGIPDRFSVSTSGNTASLTITGAQAEDEGDYYCNCRDSSGHRLVFGGGTKLTVL
# B2: ADI-14520 (antibody, V domains shown)
# VH: QVQLQQWGAGLVKPSETLSLTCAVYGGSFSGYQWHWFRQPPGKGLEWIGEINHSEITHYNASLKSRVTLSIDTSKNQFSLNLTSVTAADTAVYYCARASSGSYNFEYWFDPWGQGTLVTVSS
# VL: QSVLTQPPSVSVAPGKTAWLTCGGNNIGSKRVHWYRQKPGQAPVLVVYDDYDRPSGTPERVSGSNSGNTATLTISRVEDGDEGDYYCQVWDDPSDHAVFGGGTKLTVL
# B3: ADI-14502 (antibody, V domains shown)
# VH: QVQLVQSGAEVKKPGSSVKVSCKASGDTFSMYAISWVRQAPGQGLEWMGGVLPMLGTSNYAQQFRGRVTITADGSTSTAYMEMSNLRFEDTAVYYCARVAGLGNSYGRYFDVWGQGTLVTVSS
# VL: DIRMTQSPSSVSASIGDRVTITCRASQDISTSLAWYQQRPGKAPNLLIYAASTLHSGVPSRFRGSESGPDFTLTISSLQPEDVGTYYCQQAKSFPYTFGQGTKLEIK
# B4: ADI-14505 (antibody, V domains shown)
# VH: QVQLVQSGAEVKKPGASVKVSCKASGNSFNDFYMHWVRQAPGQGLEWMGWIDPNNGGANYAQKFHGRVTMTRDSSINTAYMELSRLRSDDTAVYYCASEPPGVGFGLIPHYYFDNWGQGTLVTVSS
# VL: EIVMTQSPDSLAVSLGERATINCKSSQNVLDTSNNKNYLAWYQQKPGQPPRLLIYWASARGSGVPDRFSGSGSGTHFTLTISSLQAEDVAVYYCQQYFSIPPTFGQGTKVEIK
# B5: ADI-14493 (antibody, V domains shown)
# VH: QVQLQQWGTGLVKPSETLSLTCAVSGGAFSGHQWNWFRQPPGKGLEWIGEINVSGNTHYNVSLRSRVTISLDESKKQFSLKMTSVTAADTAIYYCAKASSGSYHFEYWFDPWSQGTMVTVSS
# VL: SYELTQPPSVSVAPGKMAWFTCGGSDIGSKRVHWYQQKPGQAPVLLVYDDSLRPSGTSARVSGSTSGNTATLSIISVEAGDEADYFCQVWDDADDHAVFGGGTKLTVL
# B6: ADI-14519 (antibody, V domains shown)
# VH: EVQLVESGAEMKQPGASVKVSCEGFGNTLSERSIHWVRQAPGKGPEWMGDYDHEDKEAIYAPKFQGRLTISADMSTDIASLELNSLTSEDTAVYYCATVIAVGAYDIWGQGTLVTVSS
# VL: EIVLTQSPSSLYASIGDRVTITCRTGQSISRYLNWYQQKPGKAPKLLIYAASTLQSGVPSRFSGSGAGTDFTLTIRGLLPEDFATYFCQQSYIIPYTFGQGTKVEIK
# B7: ADI-14521 (antibody, V domains shown)
# VH: QVQLVQSGTEVKKPGASVKVSCLTSGYTFTHFGISWVRQAPGQGLEWMGWFSAYNGNTKYAQKFQGRITLTIDTSTSIAYLELRSLRSDDTAVYYCARDPPSLTAAGTLDYWGQGTLVTVSS
# VL: DIRLTQSPLSLPVTLGQPASISCSSNQSLVYSDGNTYLSWFQQRPGQSPRRLIYKVSDRDSGVPDRFSGSGSGTDFTLKISRVEAEDVGVYYCMQATDWPRTFGQGTKVEIK
# B8: ADI-14508 (antibody, V domains shown)
# VH: QVQLVQSGTEVKKPGASVKVSCKGSGYMFANFGVSWVRQAPGRGLEWIGWISAYNGNTYYGREQGRFTMTTDTNTAYLELTSLRYDDTALYFCARDSGATAAGILWDYWGQGTLVTVSS
# VL: EIVMTQSPLSLPVTLGQPASISCRSSQSLAYTDGSTYLNWFHQRPGQSPRRLIYKVFNRDSGVPDRFSGSGAGTDFTLTISRVEAEDVGVYYCMQATHWPRTFGQGTKVDIK
# B9: ADI-14442 (antibody, V domains shown)
# VH: QVQLVQSGSEVKKPGASVKVSCKASGYRFSNYGISWVRQAPGQGLEWMGWISAYNGNIKYGNNLQGRVTVTTDTSTATAYMEVRSLTSDDTAVYYCARDVPADGVHFMDVWGQGTLVTVSS
# VL: EIVMTQSPLSLPVTLGQPASISCRSSQSLVHSDTNTYLNWFQQRPGQSPRRLIYKVSNRDSGVPDRFSGSGSGTTFTLKISRVEAEDVGIYYCMQGSHWAPTFGQGTKVEIK
# B10: ADI-14509 (antibody, V domains shown)
# VH: QVQLVQSGSEVKKPGASVTLSCKASGYRFSNYGVSWVRQAPGQGLEWMGWISGYNGNIKYGNSLQGRVTLTTDTTTAYMEVTSLTSDDTAVYYCARDVPADGVHFMDVWGKGTTVTVSS
# VL: B9 VL with M4L, N39T, N58H, S81A, Q95E, E110D
# B11: ADI-14455 (antibody, V domains shown)
# VH: QVQLVQSGAEVKKPGASVKVSCKASGYTFTSYGTSWVRQAPGQGLEWMGWISAYNGNTNYAQNLQGRVTMTTDTSTSTSYMELRSLRSDDTAVYYCARDVPVIAAGTMDYWGQGTLVTVSS
# VL: B9 VL with E1D, S7T, H31Y, T34G, T75D, I90V, S97P, A100P, P101R
# B12: ADI-14489 (antibody, V domains shown)
# VH: B9 VH with A77T, Q113K, L116T
# VL: B9 VL with E1D, S7T
# B13: ADI-14514 (antibody, V domains shown)
# VH: B10 VH with L20V, G53A, I58T, T82R, A100G
# VL: B9 VL with P18S, N39T, N58H, Q95E
# B14: ADI-14515 (antibody, V domains shown)
# VH: QVQLVQSGGGVVQPGSSLRLSCSASGFTFMTYGMHWARQAPGKGLEWVADISFDANKKYYRDSVKGRFTISRDNSKNTVYLQMNSLRPEDTAVYFCARNTIFGVVDYWGQGTLVTVSS
# VL: EIVLTQSPATLSVSPGERATLSCRASQSVSANLAWYQHKPGQAPRLLIYGASTRASDIPARFSGSGSGTEFTLTISSLQSEDSAVYYCQQYNNWPPWTFGQGTKVEIK
# B15: ADI-14448 (antibody, V domains shown)
# VH: EVQLVESGGGLVKPGGSLRLSCAASGSSFRYSYMSWVRQAPGKGLQWVASISPSSTYTDYADSVKGRSTISRDHDKISLQVNSLRGDDTAVYYCVRHMNLVMGPFAFDIWGRGTMVTVSS
# VL: QSVVTQPPSLSGAPGQRITISCTGSSSNIGAGYDVNWYQQLPGTAPKLLIYAKTNRPSGVPERFSGSESGTSASLAITGLQPEDEADYYCQSYDRIGMYVFGTGTKLTVL
# B16: ADI-14496 (antibody, V domains shown)
# VH: QVQLVQSGAEVKKPGESLKISCQGSGYSFRSYWIGWVRQKPGKGLEYMGIIFPNDFDTRYSPSFQGQVTISVDKSTSTAFLQWTSLQASDTAIYYCGRQELQGSFTIWGQGTMVTVTS
# VL: DIVMTQSPSSLSASVGDRVTITCQASQDMGNSLNWYQQKSGKAPKLLIYDASYLDSGVPSRFSGSGSGTHFTFTISTLQPEDIATYYCQHYDNLLLFTFGPGTKLEIK
# B17: ADI-14518 (antibody, V domains shown)
# VH: QVQLVQSGPEVKKPGASVRVSCKTSGFTLSHYGVSWLRQAPGHGLEWLGWISAYNYNTQFGHRMEGRLTMTTDTSTAYMDLTSLTSDDTAIYYCARDSPSDTAAALLDFWGQGTLVTVSS
# VL: DIVLTQSPLSLPVTLGQPASISCRSSQSLVYSDGNTYLSWFQQRPGQAPRRLIYKISNRDSGVPDRFSGSGSGTDFTLKISRVEAEDVGIYYCMQATHWPRLSFGGGTKVEIK
# B18: ADI-14456 (antibody, V domains shown)
# VH: QVQLVQSGAEVKKPGASVKVSCEASEYSFSGDYVHWVRQAPGQGLEWMGWIKAVNGGANYAQKFHGRVTMTTDSSKSTVYLEMSRLTPADTAIYFCAKDRAASVHVPAGAFDLWGQGTLVTVSS
# VL: DIQMTQSPSSLSAYVGDRVSITCRASQSIDNFLNWYRQRPGKAPELLIYAASTLQGGVPSRFSGSGSGTHFTLTISSLQPEDFATYYCQQSFTIPSITFGQGTRLEIK
# B19: ADI-14516 (antibody, V domains shown)
# VH: QVQLVQSGVEVKKPGASVKVSCKTSGYTFSNYGVTWVRQAPGQGLEYMGWISAYNGNTNYAQNVQGRLTMTTDTSTSTGYMELRRLTSDDTAVYFCARDKGVTVAGSLLDYWGQGTLVTVSS
# VL: EIVMTQSPLSLPVTLGQPASISCRSSQSLEHSDGNTYLNWFQQRPGQSPRRLIYKVSNRDSGVPDRFSGSGSGTDFTLKINRVEAEDVGVYYCMESTHWPPYTFGQGTKVEIK
# B20: ADI-14501 (antibody, V domains shown)
# VH: QVQLVQSGAEVKKPGSSVKISCKASGGTFKSQAIHWVRQAPGQGLEWMGNIIPTYGSPNFAQRFLGRVTFIADDSTGAASMDLYRLTSEDTAVYYCATAGWFGELVRFDSWGQGTLVTVSS
# VL: DIVMTQSPATLSVSPGERATLSCRATESISSNLAWYQQKPGQAPRLLIYGASTRATGIPARFSGSGSGTEFTLTINSLQSEDFAVYYCQQYNNWPPLTFGGGTKVDIK
# B21: ADI-14444 (antibody, V domains shown)
# VH: QVQLVQSGPDVKRPGASVRVSCKASGYTFSDYYMHWVRQAPGQGLEWLAWVNPSTGATHYSESFRGSMVVQRDTSTDTAYLELSSLKSDDTAVYYCARIGSNEIWGQGTMVTVSS
# VL: QSALTQPASVSGSPGQSITISCAGTSSDIGGWNYVSWYQQYPGQVPKLILYEVTDRPSGVSHRFSGSKSGNRAFLTITGLRAEDEADYYCCSFTSSGSRVFGGGTKVTVL
# Target: RSV F protein of recombinant mKate-RSV, subtype A (strain A2) (Respiratory syncytial virus subtype A …, UniProt P03420 26-574)
# Assay: cell-based or functional assay
row,Binder,Neut IC50 subtype A [µg/mL]
1,B1,0.02
2,B2,0.029
3,B3,> 10
4,B4,0.065
5,B5,0.009
6,B6,12.2
7,B7,0.083
8,B8,0.029
9,B9,0.002
10,B10,0.011
11,B11,0.012
12,B12,0.023
13,B13,0.046
14,B14,0.051
15,B15,0.043
16,B16,0.006
17,B17,0.019
18,B18,> 10
19,B19,0.018
20,B20,12.3
21,B21,> 10

# Target: RSV F protein of recombinant mKate-RSV, subtype B (18537) (Respiratory syncytial virus subtype B …, UniProt P13843 26-574)
# Assay: cell-based or functional assay
row,Binder,Neut IC50 subtype B [µg/mL]
1,B1,0.06
2,B2,0.045
3,B3,2.72
4,B4,0.018
5,B5,1.27
6,B6,3.43
7,B7,0.123
8,B8,0.057
9,B9,0.015
10,B10,0.016
11,B11,0.036
12,B12,0.021
13,B13,0.074
14,B14,0.049
15,B15,0.066
16,B16,> 10
17,B17,0.032
18,B18,0.372
19,B19,0.047
20,B20,2.29
21,B21,> 10
